Data on seven molecules can be found in patent publication US12606635B2, “Glypican-2-binding moieties, chimeric antigen receptors and uses thereof” (Nanjing Legend Biotech Co., Ltd., priority 2020, dated 2026).

The test system of series [1] is SH-SY5Y. Description: Serial challenge assay, CAR Ts with different co-stimulatory domains. In kind it is cell-based, human. As to conditions: for CAR positive T cells percentage: serial SH-SY5Y challenge, FIG. 14B. The source says:
To evaluate the persistence of GPC2 CAR T cells, exemplary CAR T cells were selected and tested in the serial challenge assay. Briefly, 4×10^5 SH-SY5Y cells and 1.33×10^5 CART cells transduced with GPC2-BBz, GPC2-CD28z, GPC2-CD27z, GPC2-CD2z, GPC2-ICOSz or GPC2-OX40z lentiviral vectors were co-cultured in 12 well plates using fresh growth medium without IL-2 (E:T ratio=1:3). Cells were harvested after three days co-culture and samples were taken for cell counting using AOPI and T cell quantified by FACs. CAR T cells were replated with fresh SH-SY5Y cells at a 1:2 E:T ratio in growth medium without IL-2 to start the next round of tumor co-culture. Samples were taken for cell counting and T cell quantification at the end of each challenge every three days. GPC2-BBz served as a positive control while the untransduced T cell (UnT) was used as a negative control.

Series [2] concerns SH-SY5Y. Description: IFNγ release in co-culture with SH-SY5Y. In kind it is cell-based, human. As to conditions: for IFNγ release: Example 7, co-culture with SH-SY5Y, FIG. 8D-8F. The source says:
(§1) In addition to the cytotoxicity data above, supernatants from the in vitro co-culture assays were also collected to assess CAR T cells-induced cytokine release, e.g., release of interferon gamma (i.e., IFNγ), as another indicator of cytotoxicity, was quantified using a HTRF human IFNγ AlphaLISA kit (Perkin Elmer, #62HIFNGPEH) per manufacturer's instruction. […] No significant cytokine release were detected against GPC2-negative cell line A-431.
(§2) Supernatants from the in vitro co-culture assays were collected to assess CAR T cells-induced cytokine release, e.g., interferon gamma (i.e., IFNγ) release as described in Example 6. […] IFNγ was not induced in GPC2-negative A-431 cells. […] Cytokine release data was consistent with the in vitro cytotoxicity data.

For series [3], the system named is IMR-32. Description: IFNγ release in co-culture with IMR-32. The conditions noted are these: Example 7, co-culture with IMR-32, FIG. 8D-8F. In kind it is cell-based, human.
Text: as §1, §2

For series [4], the system named is neuroblastoma SH-SY5Y xenograft. In kind it is in vivo, NCG mice. The conditions noted are these: mouse, in vivo. Here is the method: A single dose of untransduced T cells (10×10^6) or CAR T cells (5×10^6) was administered intravenously to tumor engrafted mice 9 days after tumor inoculation (FIG. 9A). […] At the end of obversion, 100% of monovalent CAR T cells (CAS70950VH6-BBz, CAS72669VH6-BBz) and 80% of multi-valent CAR T cells (CAS70950VH6-AS71529VH6-BBz) treated mice were alive (FIG. 9A). At day 42 post treatment, 2/5 mice (40%) treated with CAS72669VH6-BBz expressing CAR T cells were tumor-free and 3/5 mice (60%) treated with CAS70950VH6-AS71529VH6-BBz expressing CAR T cells were tumor-free without recurrence. […] The data highlighted the superiority of VHH-based CAR T cells in tumor regression and protection of mice from disease progression.
Moreover, the expansion and persistence of CAR T cells in vivo are also considered as critical predictors of durable clinical tumor regression in patients with cancer. […] Average 5.00±6.42% of CAR T cells were found in the peripheral blood of NCG mice treated with 5×10^6 CAS70950VH6-AS71529VH6-BBz CAR T cells, whereas less than 1% CAR T cells were detected in CAS70950VH6-BBz, CAS72669VH6-BBz and CAS71529VH6-BBz expressing CAR T groups. Expansion of CAR T cells in the CAS70950VH6-AS71529VH6-BBz group was inversely correlated with tumor size over time.

B1: GPC2-CD2z: SEQ ID NO:251, GPC2 CAR T comprised CD2 and CD3 ζ intracellular signaling domains (protein)
chain: MALPVTALLLPLALLLHAARPEVQLVESGGGLVQPGGSLRLSCAISEFTYKNTCVGWFRQAPGKGREGVAAIDSDGNTNYVDSVKGRFTISQDNSKNTVYLQMNSLRAEDTAMYYCAAGAYCGRLLLWIGNYAYWGQGTLVTVSSTTTPAPRPPTPAPTIASQPLSLRPEACRPAAGGAVHTRGLDFACDIYLIIGICGGGSLLMVFVALLVFYITKRKKQRSRRNDEELETRAHRVATEERGRKPHQIPASTPQNPATSQHPPPPPGHRSQAPSHRPPPPGHRVQHQPQKRPPAPSGTQVHQQKGPPLPRPRVQPKPPHGAAENSLSPSSNRVKFSRSADAPAYKQGQNQLYNELNLGRREEYDVLDKRRGRDPEMGGKPRRKNPQEGLYNELQKDKMAEAYSEIGMKGERRRGKGHDGLYQGLSTATKDTYDALHMQALPPR
modifications: expressed in CAR T cells; GPC2-CD2z
Take B1: the “CAR positive T cells percentage” value in series [1] is reported as “gradual decline”.

B2: GPC2-ICOSz: SEQ ID NO:250, GPC2 CAR T comprised ICOS and CD3 ζ intracellular signaling domains (protein)
chain: MALPVTALLLPLALLLHAARPEVQLVESGGGLVQPGGSLRLSCAISEFTYKNTCVGWFRQAPGKGREGVAAIDSDGNTNYVDSVKGRFTISQDNSKNTVYLQMNSLRAEDTAMYYCAAGAYCGRLLLWIGNYAYWGQGTLVTVSSTTTPAPRPPTPAPTIASQPLSLRPEACRPAAGGAVHTRGLDFACDFWLPIGCAAFVVVCILGCILICWLTKKKYSSSVHDPNGEYMFMRAVNTAKKSRLTDVTLRVKFSRSADAPAYKQGQNQLYNELNLGRREEYDVLDKRRGRDPEMGGKPRRKNPQEGLYNELQKDKMAEAYSEIGMKGERRRGKGHDGLYQGLSTATKDTYDALHMQALPPR
modifications: expressed in CAR T cells; GPC2-ICOSz
As to B2, the “CAR positive T cells percentage” value in series [1] was “gradual decline”.

B3: GPC2-CD28z: SEQ ID NO: 248, GPC2 CAR T comprised CD28 and CD3 ζ intracellular signaling domains (protein)
chain: MALPVTALLLPLALLLHAARPEVQLVESGGGLVQPGGSLRLSCAISEFTYKNTCVGWFRQAPGKGREGVAAIDSDGNTNYVDSVKGRFTISQDNSKNTVYLQMNSLRAEDTAMYYCAAGAYCGRLLLWIGNYAYWGQGTLVTVSSIEVMYPPPYLDNEKSNGTIIHVKGKHLCPSPLFPGPSKPFWVLVVVGGVLACYSLLVTVAFIIFWVRSKRSRLLHSDYMNMTPRRPGPTRKHYQPYAPPRDFAAYRSRVKFSRSADAPAYKQGQNQLYNELNLGRREEYDVLDKRRGRDPEMGGKPRRKNPQEGLYNELQKDKMAEAYSEIGMKGERRRGKGHDGLYQGLSTATKDTYDALHMQALPPR
modifications: expressed in CAR T cells; GPC2-CD28z
Turning to B3, the “IFNγ production against SH-SY5Y” value in series [2] (GPC2 CAR Ts with different co-stimulatory domains, FIG. 13B) is reported as “higher level of IFNγ production”. Also, the “long term persistence and CAR T cells expansion” value in series [1] (serial SH-SY5Y challenge without IL-2, FIG. 14A and 14C) is “comparable level of long term persistence and CAR T cells expansion”. Also, in series [1], the “CAR positive T cells percentage” value is “expanded and reaching a peak level”.

B4: CAS71529VH6-BBz: humanized VHH anti-GPC2 CAR (4-1BB, CD3ζ), SEQ ID NO: 223; tested as CAR T cells (protein)
chain: MALPVTALLLPLALLLHAARPEVQLVESGGGLVQPGGSLRLSCAVSEYRYSSRYCMGWFRQAPGKGREGVAAIDSNGSADYVDSVKGRFTISKDNSKNTLYLQMNSLRAEDTAMYYCAADHLAYDCYSGATSVFRYWGQGTLVTVSSTTTPAPRPPTPAPTIASQPLSLRPEACRPAAGGAVHTRGLDFACDIYIWAPLAGTCGVLLLSLVITLYCKRGRKKLLYIFKQPFMRPVQTTQEEDGCSCRFPEEEEGGCELRVKFSRSADAPAYKQGQNQLYNELNLGRREEYDVLDKRRGRDPEMGGKPRRKNPQEGLYNELQKDKMAEAYSEIGMKGERRRGKGHDGLYQGLSTATKDTYDALHMQALPPR
modifications: expressed in CAR T cells; CAS71529VH6-BBz
As to B4, the IFNγ release result in series [2] and in series [3] was “high levels of IFNγ” in each case. Moreover, in series [4], the “percentage of CAR T cells in peripheral blood” value is recorded as “less than 1%”.

B5: GPC2-CD27z: SEQ ID NO: 249, GPC2 CAR T comprised CD27 and CD3 ζ intracellular signaling domains (protein)
chain: MALPVTALLLPLALLLHAARPEVQLVESGGGLVQPGGSLRLSCAISEFTYKNTCVGWFRQAPGKGREGVAAIDSDGNTNYVDSVKGRFTISQDNSKNTVYLQMNSLRAEDTAMYYCAAGAYCGRLLLWIGNYAYWGQGTLVTVSSTTTPAPRPPTPAPTIASQPLSLRPEACRPAAGGAVHTRGLDFACDILVIFSGMFLVFTLAGALFLHQRRKYRSNKGESPVEPAEPCHYSCPREEEGSTIPIQEDYRKPEPACSPRVKFSRSADAPAYKQGQNQLYNELNLGRREEYDVLDKRRGRDPEMGGKPRRKNPQEGLYNELQKDKMAEAYSEIGMKGERRRGKGHDGLYQGLSTATKDTYDALHMQALPPR
modifications: expressed in CAR T cells; GPC2-CD27z
With B5, the “CAR positive T cells percentage” value in series [1] is “gradual decline”.

B6: GPC2-OX40z: SEQ ID NO:252, GPC2 CAR T comprised OX40 and CD3 ζ intracellular signaling domains (protein)
chain: MALPVTALLLPLALLLHAARPEVQLVESGGGLVQPGGSLRLSCAISEFTYKNTCVGWFRQAPGKGREGVAAIDSDGNTNYVDSVKGRFTISQDNSKNTVYLQMNSLRAEDTAMYYCAAGAYCGRLLLWIGNYAYWGQGTLVTVSSTTTPAPRPPTPAPTIASQPLSLRPEACRPAAGGAVHTRGLDFACDVAAILGLGLVLGLLGPLAILLALYLLRRDQRLPPDAHKPPGGGSFRTPIQEEQADAHSTLAKIRVKFSRSADAPAYKQGQNQLYNELNLGRREEYDVLDKRRGRDPEMGGKPRRKNPQEGLYNELQKDKMAEAYSEIGMKGERRRGKGHDGLYQGLSTATKDTYDALHMQALPPR
modifications: expressed in CAR T cells; GPC2-OX40z
In the case of B6, the “CAR positive T cells percentage” value in series [1] is listed as “gradual decline”.

B7: CAS72052VH5-BBz: humanized VHH anti-GPC2 CAR (4-1BB, CD3ζ), SEQ ID NO: 224; tested as CAR T cells (protein)
chain: MALPVTALLLPLALLLHAARPQVQLVESGGGVVQPGGSLRLSCAVSGFRYASYCMGWFRQAPGKGLEGVAAIHSDGIIRYAESVKGRFTISKDNSKNTLYLQMNSLRAEDTAVYYCAAGAYCGADAILTLYDYAFWGQGTLVTVSSTTTPAPRPPTPAPTIASQPLSLRPEACRPAAGGAVHTRGLDFACDIYIWAPLAGTCGVLLLSLVITLYCKRGRKKLLYIFKQPFMRPVQTTQEEDGCSCRFPEEEEGGCELRVKFSRSADAPAYKQGQNQLYNELNLGRREEYDVLDKRRGRDPEMGGKPRRKNPQEGLYNELQKDKMAEAYSEIGMKGERRRGKGHDGLYQGLSTATKDTYDALHMQALPPR
modifications: expressed in CAR T cells; CAS72052VH5-BBz
Take B7: the IFNγ release result in series [2] and in series [3] was “high levels of IFNγ” throughout.
